In publication PMC4459106:

Substrate: CC(C)C[C@H](NC(=O)[C@H](CCCCN)NC(=O)[C@H](C)NC(=O)[C@@H]1CCCN1C(=O)[C@H](CO)NC(=O)[C@H](CCCNC(=N)N)NC(=O)[C@@H]1CCCN1)C(=O)N[C@@H](CO)C(=O)N[C@@H](Cc1ccccc1)C(=O)N[C@@H](CCC(N)=O)C(=O)N[C@@H](Cc1ccccc1)C(=O)N1CCC[C@H]1C(=O)N[C@@H](CO)C(=O)O
Assay: purified protein, by the assay type
Assay type: biochemical, rat (rat ERK2 numbering used throughout)
Conditions: other: phosphorylation by 2 nM ppERK2, 1.6–400 μM Elk387-399, 500 μM γ-32P ATP, 25 mM HEPES pH 7.5, 10 mM MgCl2, 30 °C, Michaelis-Menten fit
Description: Kinase assays to determine the Michelis-Menten parameters for the phosphorylation of Elk387-399by ppERK2 were performed in 100 μL volumes at 30 °C in a buffer containing 25 mM HEPES pH 7.5, 50 mM KCl, 0.1 mM EDTA, 0.1 mM EGTA, 2 mM DTT, 10 mM MgCl2, and 40 μg/mL BSA. […] The reaction mixture was incubated for 10 minutes at 30 °C before initiation with 500 μM γ-^32P ATP (specific activity of 1 × 10^15 cpm/mol). Aliquots (10 μL) were spotted onto P81 filter papers at fixed times. The filter papers were washed three times for 15 minutes with 50 mM phosphoric acid to remove excess ATP and washed once with acetone for drying. The amount of phosphate incorporated into Elk387-399was determined by the associated counts per minute on a scintillation counter (Packard 1500) at a σ value of 2.

B1: ppERK2 (Rattus norvegicus) (protein)
chain: MAAAAAAGPEMVRGQVFDVGPRYTNLSYIGEGAYGMVCSAYDNLNKVRVAIKKISPFEHQTYCQRTLREIKILLRFRHENIIGINDIIRAPTIEQMKDVYIVQDLMETDLYKLLKTQHLSNDHICYFLYQILRGLKYIHSANVLHRDLKPSNLLLNTTCDLKICDFGLARVADPDHDHTGFLTEYVATRWYRAPEIMLNSKGYTKSIDIWSVGCILAEMLSNRPIFPGKHYLDQLNHILGILGSPSQEDLNCIINLKARNYLLSLPHKNKVPWNRLFPNADSKALDLLDKMLTFNPHKRIEVEQALAHPYLEQYYDPSDEPIAEAPFKFDMELDDLPKEKLKELIFEETARFQPGYRS
notes: made in house
- Km: 13.4 ± 1.1 µM
- kcat: 0.56 ± 0.1 s⁻¹
